In publication PMC2625445, “Mycobacterium tuberculosis Rv3802c Encodes a Phospholipase/Thioesterase and Is Inhibited by the Antimycobacterial Agent Tetrahydrolipstatin” (PLoS ONE, 2009):

How the values were obtained:
Rv3802 = target: T1, Rv3802 (Mycobacterium tuberculosis, UniProt O53581); test: […]; TLC of […]-palmitoyl-CoA hydrolysis; format: biochemical
T1 construct: gene cut6

[1] = system: CCCCCCCCCCCCCCCC(=O)SCCNC(=O)CCNC(=O)[C@H](O)C(C)(C)COP(=O)(O)OP(=O)(O)OC[C@H]1O[C@@H](n2cnc3c(N)ncnc32)[C@H](O)[C@@H]1OP(=O)(O)O; test: purified protein
[2] = system: CCCCCCCCCC(=O)SCCNC(=O)CCNC(=O)[C@H](O)C(C)(C)COP(=O)(O)OP(=O)(O)OC[C@H]1O[C@@H](n2cnc3c(N)ncnc32)[C@H](O)[C@@H]1OP(=O)(O)O; test: purified protein

T1 sequence (O53581 37-336): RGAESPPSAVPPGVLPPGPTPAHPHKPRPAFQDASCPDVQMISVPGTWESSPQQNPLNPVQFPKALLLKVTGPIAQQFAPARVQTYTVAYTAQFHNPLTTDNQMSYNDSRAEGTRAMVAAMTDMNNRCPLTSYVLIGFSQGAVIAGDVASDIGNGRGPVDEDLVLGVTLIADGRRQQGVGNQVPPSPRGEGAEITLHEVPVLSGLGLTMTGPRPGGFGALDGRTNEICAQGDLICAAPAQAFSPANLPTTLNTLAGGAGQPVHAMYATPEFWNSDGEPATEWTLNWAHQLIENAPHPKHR

Compound | Ki (Rv3802) [nM] | Km [1] [µM] | Km [2] [µM] | kcat [2] [s⁻¹] | kcat/Km [2] [M⁻¹ s⁻¹]
CCCCCCCCCCC[C@@H](C[C@@H]1OC(=O)[C@H]1CCCCCC)OC(=O)[C@H](CC(C)C)NC=O [THL, tetrahydrolipstatin] | 5 | – | – | – | –
Rv3802 (Mycobacterium tuberculosis H37Rv) | – | 17 | 2280 | 0.0845 ± 0.0253 | 37 ± 11.1
